Laboratory results as given in the supplement of paper PMC10065799, “High-throughput profiling of sequence recognition by tyrosine kinases and SH2 domains using bacterial peptide display” (eLife, 2023).

Legend:
SHP2-C SH2 = assay: SH2 binding enrichment of the phosphorylated peptide, bacterial display (enrichment ratio); higher = better substrate or ligand; peptides without Tyr show the background
c-Src SH2 = assay: as above
Grb2 SH2 = Grb2 SH2 (UniProt P62993); assay: as above
MERTK = MERTK (UniProt Q12866); assay: phosphorylation enrichment, bacterial display (enrichment ratio); higher = better substrate or ligand; peptides without Tyr show the background
EPHB1 = EPHB1 (UniProt P54762); assay: as above
Jak2 = Jak2 (UniProt O60674); assay: as above
c-Src = assay: as above
FGFR1 = FGFR1 (UniProt P11362); assay: as above
c-Abl (mouse) = assay: as above
Hck = Hck (UniProt P08631); assay: as above
AncSZ = assay: as above
EPHB2 = EPHB2 (UniProt P29323); assay: as above
FGFR3 = FGFR3 (UniProt P22607); assay: as above
Fer (mouse) = assay: as above
Fyn = Fyn (UniProt P06241); assay: as above
Fes = Fes (UniProt P07332); assay: as above
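Wherever SH2 binding enrichment of the phosphorylated peptide, bacterial display is given: peptide library displayed on the E. coli surface as eCPX fusions, selected cells deep-sequenced, score is each peptide's frequency after selection divided by its frequency in the input.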
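Wherever phosphorylation enrichment, bacterial display is given: 11-residue human phosphosite peptides and single-mutation variants displayed on the E. coli surface, counted by deep sequencing, each peptide's frequency after selection divided by its frequency in the unselected input library; frequency after pTyr selection over input frequency; kinase dosed for 20-30% of maximal phosphorylation in three min.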

Fyn, sequence (P06241 whole entry, looked up): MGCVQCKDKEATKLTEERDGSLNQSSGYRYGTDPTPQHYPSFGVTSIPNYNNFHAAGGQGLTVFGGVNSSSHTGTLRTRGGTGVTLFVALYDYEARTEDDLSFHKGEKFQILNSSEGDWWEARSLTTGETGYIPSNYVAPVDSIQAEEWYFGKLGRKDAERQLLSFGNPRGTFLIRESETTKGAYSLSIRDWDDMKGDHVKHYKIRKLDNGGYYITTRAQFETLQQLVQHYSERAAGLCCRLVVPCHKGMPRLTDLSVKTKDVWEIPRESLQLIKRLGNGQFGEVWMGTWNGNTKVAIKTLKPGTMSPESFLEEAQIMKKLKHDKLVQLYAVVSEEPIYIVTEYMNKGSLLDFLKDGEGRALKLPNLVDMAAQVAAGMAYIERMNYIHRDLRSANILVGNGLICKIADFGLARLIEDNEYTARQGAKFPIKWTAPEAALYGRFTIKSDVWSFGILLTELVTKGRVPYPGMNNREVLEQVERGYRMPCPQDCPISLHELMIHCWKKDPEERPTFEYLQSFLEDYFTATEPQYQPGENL
FGFR3, sequence (P22607 whole entry, looked up): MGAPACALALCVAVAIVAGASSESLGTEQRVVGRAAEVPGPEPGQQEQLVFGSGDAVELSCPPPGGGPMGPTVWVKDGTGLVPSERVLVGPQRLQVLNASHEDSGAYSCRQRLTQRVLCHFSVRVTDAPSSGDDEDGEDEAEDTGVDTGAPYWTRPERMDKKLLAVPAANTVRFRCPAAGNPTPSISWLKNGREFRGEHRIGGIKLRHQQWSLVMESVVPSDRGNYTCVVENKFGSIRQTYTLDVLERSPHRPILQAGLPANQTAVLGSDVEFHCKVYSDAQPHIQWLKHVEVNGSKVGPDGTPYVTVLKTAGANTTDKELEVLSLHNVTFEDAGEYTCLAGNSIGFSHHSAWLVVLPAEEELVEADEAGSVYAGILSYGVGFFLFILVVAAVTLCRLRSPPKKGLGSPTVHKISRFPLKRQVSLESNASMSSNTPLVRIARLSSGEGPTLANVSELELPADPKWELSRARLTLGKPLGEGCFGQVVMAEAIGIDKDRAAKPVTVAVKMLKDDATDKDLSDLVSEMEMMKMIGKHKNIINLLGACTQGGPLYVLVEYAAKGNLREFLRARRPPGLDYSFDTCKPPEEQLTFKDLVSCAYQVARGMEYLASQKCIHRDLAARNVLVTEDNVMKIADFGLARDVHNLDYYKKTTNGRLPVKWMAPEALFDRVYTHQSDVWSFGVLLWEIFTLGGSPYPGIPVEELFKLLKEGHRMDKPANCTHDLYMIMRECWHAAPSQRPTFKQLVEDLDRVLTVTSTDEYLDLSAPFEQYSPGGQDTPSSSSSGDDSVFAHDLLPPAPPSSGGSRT
EPHB1, sequence (P54762 whole entry, looked up): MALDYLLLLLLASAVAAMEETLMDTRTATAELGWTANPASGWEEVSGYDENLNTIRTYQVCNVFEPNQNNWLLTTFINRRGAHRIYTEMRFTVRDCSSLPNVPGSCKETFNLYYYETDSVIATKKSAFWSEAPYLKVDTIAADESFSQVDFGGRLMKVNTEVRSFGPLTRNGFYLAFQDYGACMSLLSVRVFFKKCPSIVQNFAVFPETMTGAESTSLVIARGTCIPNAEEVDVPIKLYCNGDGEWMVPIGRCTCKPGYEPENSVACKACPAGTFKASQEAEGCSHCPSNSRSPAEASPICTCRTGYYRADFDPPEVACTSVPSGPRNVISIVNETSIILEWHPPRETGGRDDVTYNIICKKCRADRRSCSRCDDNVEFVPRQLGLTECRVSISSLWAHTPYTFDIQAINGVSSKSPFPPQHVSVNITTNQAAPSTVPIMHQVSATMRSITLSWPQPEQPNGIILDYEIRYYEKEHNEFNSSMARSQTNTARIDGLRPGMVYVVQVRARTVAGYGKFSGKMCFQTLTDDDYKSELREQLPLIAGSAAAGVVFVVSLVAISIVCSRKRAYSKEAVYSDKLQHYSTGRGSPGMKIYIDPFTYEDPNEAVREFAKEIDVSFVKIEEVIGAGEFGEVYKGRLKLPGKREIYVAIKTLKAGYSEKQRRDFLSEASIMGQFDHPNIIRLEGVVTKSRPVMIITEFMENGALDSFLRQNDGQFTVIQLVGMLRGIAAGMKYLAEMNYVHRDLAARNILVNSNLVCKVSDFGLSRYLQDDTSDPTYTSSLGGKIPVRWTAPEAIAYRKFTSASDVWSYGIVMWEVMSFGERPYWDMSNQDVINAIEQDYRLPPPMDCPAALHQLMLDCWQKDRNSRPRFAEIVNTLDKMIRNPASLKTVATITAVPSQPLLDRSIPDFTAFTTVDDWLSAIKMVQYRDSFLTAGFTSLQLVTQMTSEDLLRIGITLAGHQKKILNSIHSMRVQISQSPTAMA
Grb2 SH2, sequence (P62993 whole entry, looked up): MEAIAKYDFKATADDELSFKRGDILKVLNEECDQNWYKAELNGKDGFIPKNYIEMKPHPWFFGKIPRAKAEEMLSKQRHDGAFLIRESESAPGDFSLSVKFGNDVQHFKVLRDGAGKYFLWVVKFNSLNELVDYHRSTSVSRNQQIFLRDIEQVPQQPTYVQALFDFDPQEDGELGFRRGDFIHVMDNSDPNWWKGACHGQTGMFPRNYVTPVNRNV
Jak2, sequence (O60674 whole entry, looked up): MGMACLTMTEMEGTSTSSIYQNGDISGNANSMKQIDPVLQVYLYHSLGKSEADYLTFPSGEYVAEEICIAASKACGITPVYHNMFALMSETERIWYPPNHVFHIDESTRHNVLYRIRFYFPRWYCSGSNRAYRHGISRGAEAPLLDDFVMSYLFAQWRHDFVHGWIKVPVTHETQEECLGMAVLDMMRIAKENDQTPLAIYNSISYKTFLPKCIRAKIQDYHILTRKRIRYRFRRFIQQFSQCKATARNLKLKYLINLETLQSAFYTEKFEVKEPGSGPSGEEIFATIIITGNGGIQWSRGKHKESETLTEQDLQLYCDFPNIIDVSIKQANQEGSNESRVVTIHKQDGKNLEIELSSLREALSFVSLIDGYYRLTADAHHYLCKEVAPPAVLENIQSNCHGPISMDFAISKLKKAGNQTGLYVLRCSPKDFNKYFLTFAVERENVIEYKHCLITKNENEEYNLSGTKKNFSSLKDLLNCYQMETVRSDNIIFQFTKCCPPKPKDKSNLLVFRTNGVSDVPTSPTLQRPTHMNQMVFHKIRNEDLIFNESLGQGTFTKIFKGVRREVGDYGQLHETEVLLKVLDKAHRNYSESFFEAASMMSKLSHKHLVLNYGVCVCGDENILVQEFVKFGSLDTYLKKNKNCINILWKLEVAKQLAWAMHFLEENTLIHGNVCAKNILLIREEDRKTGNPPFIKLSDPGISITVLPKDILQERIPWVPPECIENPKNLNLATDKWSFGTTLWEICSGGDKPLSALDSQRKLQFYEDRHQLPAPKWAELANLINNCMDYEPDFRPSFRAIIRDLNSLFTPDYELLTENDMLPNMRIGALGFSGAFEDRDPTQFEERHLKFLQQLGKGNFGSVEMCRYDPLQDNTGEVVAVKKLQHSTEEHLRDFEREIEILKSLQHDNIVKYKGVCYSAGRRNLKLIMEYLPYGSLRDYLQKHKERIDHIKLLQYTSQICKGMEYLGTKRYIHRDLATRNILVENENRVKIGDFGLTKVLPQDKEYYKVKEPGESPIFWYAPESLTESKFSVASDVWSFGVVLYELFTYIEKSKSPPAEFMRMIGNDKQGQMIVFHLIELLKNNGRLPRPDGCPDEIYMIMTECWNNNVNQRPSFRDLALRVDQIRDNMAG
FGFR1, sequence (P11362 whole entry, looked up): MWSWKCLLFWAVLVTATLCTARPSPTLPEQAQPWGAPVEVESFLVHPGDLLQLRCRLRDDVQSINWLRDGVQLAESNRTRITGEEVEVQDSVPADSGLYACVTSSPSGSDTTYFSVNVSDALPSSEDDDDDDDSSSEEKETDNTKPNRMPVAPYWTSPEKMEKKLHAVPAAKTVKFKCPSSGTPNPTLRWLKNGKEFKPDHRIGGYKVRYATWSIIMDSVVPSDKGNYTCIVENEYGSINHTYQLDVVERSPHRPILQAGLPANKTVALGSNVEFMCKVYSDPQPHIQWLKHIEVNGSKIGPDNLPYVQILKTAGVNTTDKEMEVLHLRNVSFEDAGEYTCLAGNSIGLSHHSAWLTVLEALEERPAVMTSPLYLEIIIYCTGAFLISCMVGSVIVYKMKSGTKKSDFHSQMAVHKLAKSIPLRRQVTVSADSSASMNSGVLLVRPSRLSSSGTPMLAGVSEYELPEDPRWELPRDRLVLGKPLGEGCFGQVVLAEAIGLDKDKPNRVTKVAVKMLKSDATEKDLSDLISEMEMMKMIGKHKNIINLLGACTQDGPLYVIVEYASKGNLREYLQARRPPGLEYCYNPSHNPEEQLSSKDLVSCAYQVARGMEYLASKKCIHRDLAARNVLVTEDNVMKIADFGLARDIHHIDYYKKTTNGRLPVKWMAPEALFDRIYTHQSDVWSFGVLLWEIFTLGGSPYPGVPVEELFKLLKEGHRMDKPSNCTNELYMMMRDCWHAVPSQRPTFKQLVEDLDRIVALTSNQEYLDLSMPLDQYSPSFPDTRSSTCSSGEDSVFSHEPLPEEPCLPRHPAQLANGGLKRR
Hck, sequence (P08631 whole entry, looked up): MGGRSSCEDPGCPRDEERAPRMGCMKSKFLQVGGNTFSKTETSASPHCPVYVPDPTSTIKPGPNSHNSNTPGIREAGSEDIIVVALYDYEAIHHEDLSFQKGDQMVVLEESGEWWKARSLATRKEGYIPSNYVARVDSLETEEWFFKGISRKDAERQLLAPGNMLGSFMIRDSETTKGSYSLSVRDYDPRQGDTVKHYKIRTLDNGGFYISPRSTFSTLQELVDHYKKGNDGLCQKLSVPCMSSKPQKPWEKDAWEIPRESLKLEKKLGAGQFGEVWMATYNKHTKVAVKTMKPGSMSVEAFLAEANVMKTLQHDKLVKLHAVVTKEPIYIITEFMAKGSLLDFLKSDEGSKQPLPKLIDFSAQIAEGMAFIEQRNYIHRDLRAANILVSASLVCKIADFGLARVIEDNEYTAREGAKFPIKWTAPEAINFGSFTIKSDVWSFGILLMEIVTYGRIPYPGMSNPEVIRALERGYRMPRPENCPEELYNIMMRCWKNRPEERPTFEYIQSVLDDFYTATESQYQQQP

Row | Sequence | SH2 binding enrichment (SHP2-C SH2) | SH2 binding enrichment (c-Src SH2) | SH2 binding enrichment (Grb2 SH2) | phosphorylation enrichment (MERTK) | phosphorylation enrichment (EPHB1) | phosphorylation enrichment (Jak2) | phosphorylation enrichment (c-Src) | phosphorylation enrichment (FGFR1) | phosphorylation enrichment (c-Abl (mouse)) | phosphorylation enrichment (Hck) | phosphorylation enrichment (AncSZ) | phosphorylation enrichment (EPHB2) | phosphorylation enrichment (FGFR3) | phosphorylation enrichment (Fer (mouse)) | phosphorylation enrichment (Fyn) | phosphorylation enrichment (Fes)
1 | PPQFSYGLQTQ [SRA1_Y35] | 0.544 | 0.425 | 0.97 | 0.467 | 0.333 | 0.433 | 0.426 | 0.586 | 0.483 | 0.443 | 0.466 | 0.584 | 0.308 | 0.286 | 0.346 | 0.604
2 | YFWDGYMPRQY [GSS_Y270_R267W] | 1.1 | 1.07 | 1.11 | 3.96 | 0.68 | 5.42 | 0.772 | 10.8 | 0.565 | 0.783 | 1.01 | 0.521 | 9.39 | 0.576 | 0.547 | 1.18
3 | RVFIKYLPEWT [PSEN1_Y240_L235R] | 1.19 | 0.906 | 1.33 | 0.678 | 1.15 | 1.71 | 0.855 | 0.966 | 1.13 | 0.944 | 2.32 | 1.34 | 1.32 | 1.02 | 0.735 | 2.8
4 | ALKKPYGVLYK [RPF2_Y59] | 2.38 | 1.38 | 1.54 | 0.397 | 0.544 | 0.72 | 0.707 | 0.455 | 0.675 | 0.675 | 0.643 | 0.4 | 0.516 | 0.5 | 0.503 | 0.775
5 | SEASYYKSLNL [NGEF_Y289] | 0.644 | 0.588 | 0.718 | 0.659 | 0.499 | 1.1 | 0.515 | 1.29 | 0.615 | 0.643 | 0.827 | 0.56 | 0.979 | 0.497 | 0.539 | 0.793
6 | LSIQCYLRASD [HMGCS2_Y262_L266S] | 0.795 | 0.443 | 0.732 | 1.2 | 3.37 | 2.95 | 0.998 | 1.99 | 1.87 | 2.46 | 3.81 | 3.31 | 5.23 | 2.44 | 2.73 | 4.92
7 | QQLDEYQKLLD [LMNA_Y359_E361K] | 0.724 | 0.699 | 0.708 | 0.81 | 1.27 | 1.72 | 0.642 | 0.65 | 1.03 | 0.742 | 1.53 | 1.28 | 1.2 | 0.905 | 0.724 | 1.85
